Laboratory results as given in article doi:10.1101/292912 (bioRxiv, 2018).

Target: the molecule itself
Assay: dynamic light scattering

B1: Δ68-269 SaMGT (transmembrane domain-less monoglycosyltransferase from S. aureus) (domain or fragment)
chain: DNVDELRKIENKSSFVSADNMPEYVKGAFISMEDERFYNHHGFDLKGTTRALFSTISDRDVQGGSTITQQVVKNYFYDNDRSFTRKVKELFVAHRVEKQYNKNEILSFYLNNIYFGDNQYTLEGAANHYFGTTVNKNSTTMSHITVLQSAILASKVNAPSVYNINNMSENFTQRVSTNLEKMKQQNYINETQYQQAMSQLNR
- binding result: binds
